# According to US20100036106:
# Molecular target: Glutathione S-transferase (GST) (Schistosoma japonicum) (UniProt P08515)
# Experiment: FP
# Chain of Glutathione S-transferase (GST) (Schistosoma japonicum) (P08515 2-218): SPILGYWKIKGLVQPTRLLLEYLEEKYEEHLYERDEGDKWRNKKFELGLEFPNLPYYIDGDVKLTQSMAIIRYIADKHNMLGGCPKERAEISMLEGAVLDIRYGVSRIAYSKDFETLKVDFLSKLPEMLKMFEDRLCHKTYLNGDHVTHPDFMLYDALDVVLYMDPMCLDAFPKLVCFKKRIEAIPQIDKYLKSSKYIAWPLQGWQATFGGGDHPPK
sequence,measurement,value
GGUAGAUACGAUGGANNNNNNNNNNNNNNNNNNNNNNNNNNNNNNCAUGACGCGCAGCCAA [18th RNA pool],Kd,400 nM
